Consider one substance from US20200102553A1.

The assay deals with membrane-tethered Cre fusion: signal peptide, flag tag, CD8 transmembrane domain, GzB cleavage site, Cre recombinase (UniProt P01732). The assay is described as follows: cell-based or functional assay.

For the substance “Granzyme B (GzB) (from UniProt P10144 21-247) (enzyme)”, the reporter inversion by released Cre, qPCR came out at 3 fold.
